Here are results for 36 molecules from US20250352589A1, “OXYTOCIN-MIMETIC COMPOSITIONS AND USES THEREOF” (INSTITUT NATIONAL DE LA SANTÉ ET DE LA RECHERCHE MÉDICALE, priority 2021, published 2025).

Like-named read-outs stand apart in the source and are kept apart here.

For one assay, the target named is T1, human OT-R (Homo sapiens, UniProt P30559).
T1 construct: expressed in transfected cells; host or cells: HEK cells
T1 sequence (P30559 1-389): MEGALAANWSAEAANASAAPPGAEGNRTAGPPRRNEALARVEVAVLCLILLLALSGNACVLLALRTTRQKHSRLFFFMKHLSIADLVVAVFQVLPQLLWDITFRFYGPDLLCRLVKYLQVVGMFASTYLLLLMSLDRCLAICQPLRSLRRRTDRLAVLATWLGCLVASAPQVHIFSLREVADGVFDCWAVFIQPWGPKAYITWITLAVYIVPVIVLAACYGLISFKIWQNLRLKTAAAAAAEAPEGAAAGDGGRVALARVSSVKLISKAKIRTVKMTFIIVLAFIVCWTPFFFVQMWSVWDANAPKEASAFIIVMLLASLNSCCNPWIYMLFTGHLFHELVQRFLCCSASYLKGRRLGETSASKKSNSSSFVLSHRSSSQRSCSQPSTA
The assay can be described thus: Activation of OT-R by bacterial peptides: calcium release from HEK cells transfected with human OT-R. In kind it is cell-based. The conditions noted are these: for specific activation of OTR: OTR expressing HEK cells; for Emax: mean ± standard error, maximal amplitude of Ca2+ release, HEK cells expressing human OT-R; for activation of the oxytocin receptor: statement in the description, micromolar scale.

A further assay concerns anti-oxytocin antibodies. Nature of the assay: Proteomic analysis: 2D gel and OT immunodetection (OT IgG) of bacterial proteomes. It is filed as binding. The procedure: In this study, 14 bacteria-extracted proteomes were analyzed: (i) from 5 Bifidobacterium species grown in anaerobe conditions, (ii) from 5 Lactobacillus species grown in anaerobe culture conditions and (iii) from 4 aerotolerant Lactobacillus species grown in aerobe conditions. Each proteome analysis was performed in triplicate and was further separated in 3 fractions i.e. soluble (S), membrane (M), and residual (R) resulting in 9 samples/proteome). Each fraction was initially screened by western blot (WB) for the presence OT-like reactivity to validate it for further 2D-SDS-PAGE analysis. […] Finally, all fractions have been analyzed using 2D gel technique and OT immunodetection. 2D gel electrophoresis allowed to improve visibility of the less abundant proteins in a complex sample. Thereby, all samples were analyzed at least once with this method to scan optimally each proteome in the search for OT mimicry. […] The specificity for OT-like staining was controlled by pre-adsorption of OT-IgG with OT peptide.
All protein spots in silver nitrate staining gels corresponding to OT-like spots in the membrane were excised and analyzed by mass spectrometry

The next assay concerns the target human oxytocin receptor (human, UniProt P30559). The assay can be described thus: cell-based or functional assay.
Setting [1] is: 2D-immunoblotting, spots identified by mass spectrometry.

Turning to `CSCC[C@H](NC(=O)[C@@H]1CCCN1C(=O)CNC(=O)[C@H](CC(N)=O)NC(=O)[C@H](Cc1c[nH]c2ccccc12)NC(=O)[C@@H](NC(=O)[C@@H](NC(=O)[C@@H](NC(=O)[C@@H](N)CCCCN)[C@@H](C)O)C(C)C)C(C)C)C(=O)NCC(=O)O` [Peptide 3], on human OT-R, the “specific activation of OTR” value is reported as “specifically activated OTR”, the Emax is given as 302 ± 35.41 and the “activation of the oxytocin receptor” value is reported as “strongly activate the oxytocin receptor at a micromolar scale”.

Turning to `CC[C@H](C)[C@H](NC(=O)[C@H](Cc1ccc(O)cc1)NC(=O)[C@@H](N)CC(=O)O)C(=O)N[C@@H](CCCCN)C(=O)N[C@@H](CC(N)=O)C(=O)N[C@@H](CCSC)C(=O)N[C@H](C(=O)N[C@H](C(=O)NCC(=O)O)[C@@H](C)O)[C@@H](C)CC` [Peptide 8], at human OT-R, the “specific activation of OTR” value is given as “specifically activated OTR”, the Emax is reported as 140 ± 71.48 and the “activation of the oxytocin receptor” value is “strongly activate the oxytocin receptor at a micromolar scale”.

Regarding Elongation factor Tu [SEQ ID NO:14], the “immune cross-reaction with anti-oxytocin antibodies” value (“immune cross-reaction” below) in the assay with anti-oxytocin antibodies (setting [1]) is reported as “immune cross-react with anti-oxytocin antibodies”.

Elongation factor Tu [SEQ ID NO:17]: the “immune cross-reaction” value with anti-oxytocin antibodies (setting [1]) was “immune cross-react with anti-oxytocin antibodies”.

Consider Enolase 2 [SEQ ID NO:8], for which the “immune cross-reaction” value with anti-oxytocin antibodies (setting [1]) is given as “immune cross-react with anti-oxytocin antibodies”.

On to “Glucose-6-phosphate isomerase [SEQ ID NO:18]”, for which, in the assay with anti-oxytocin antibodies, the “immune cross-reaction” value is recorded as “immune cross-react with anti-oxytocin antibodies”.

On to H-ATSKNCPIA-OH [Peptide 4], for which, on human OT-R, the “specific activation of OTR” value is given as “specifically activated OTR” and the Emax turned out to be 304.6 ± 29.70.

On to H-DFVKNMITG-OH [Peptide 17], for which the Emax on human OT-R was 135.3 ± 8.92.

Consider H-DYVKNMITG-OH [Peptide 1], for which, on human OT-R, the “specific activation of OTR” value is reported as “specifically activated OTR”, the Emax is recorded as 273.8 ± 35.03 and the “activation of the oxytocin receptor” value is given as “strongly activate the oxytocin receptor at a micromolar scale”. For the same molecule, the “most efficient OT-like peptides” value at human OT-R (judged by EC50 and maximal amplitude of Ca2+ release) was “most efficient”.

H-KFVNDNELG-OH [Peptide 2]: at human OT-R, the “specific activation of OTR” value is on record as “specifically activated OTR”, the Emax is reported as 164.8 ± 107.9 and the “activation of the oxytocin receptor” value is recorded as “strongly activate the oxytocin receptor at a micromolar scale”.

Consider H-KQFVHENELG-OH [Peptide 7], for which, at human OT-R, the “specific activation of OTR” value is recorded as “specifically activated OTR” and the Emax is reported as 262.8 ± 35.64.

On to H-KYIENISDE-OH [Peptide 14], for which, at human OT-R, the “specific activation of OTR” value is recorded as “specifically activated OTR” and the Emax was 221.5 ± 10.40.

Consider H-LTITNVPNS-OH [Peptide 5], for which, at human OT-R, the “specific activation of OTR” value is “specifically activated OTR” and the Emax was 272 ± 99.09.

As for H-QYIQEGR-OH [Peptide 6, H-QYIQEGR-OH], at human OT-R, the “specific activation of OTR” value is given as “specifically activated OTR”, the Emax is 99.42 ± 6.77 and the “activation of the oxytocin receptor” value is reported as “strongly activate the oxytocin receptor at a micromolar scale”.

As for H-SYFYNKEDG-OH [Peptide 10, LG], the “activation of the oxytocin receptor” value with human OT-R is on record as “strongly activate the oxytocin receptor at a micromolar scale”.

“H-VDIQEFMIMPVG-OH [Peptide 9, Enolase 2 fragment 160-171; LG]”: the “activation of the oxytocin receptor” value in the assay with human OT-R is on record as “strongly activate the oxytocin receptor at a micromolar scale”.

Turning to H-IYLRSNPLMK-OH [OT-like peptide #15, Probable phosphoketolase 40-49, H-IYLRSNPLMK-OH], the “Emax of calcium release” value with human oxytocin receptor was 5.36.

For H-KQFVHENELG-OH [OT-like peptide #7, Glucose-6-phosphate isomerase 12-21, H-KQFVHENELG-OH], in the assay with human oxytocin receptor, the “EC50 of calcium release” value is 2.57 µM and the “Emax of calcium release” value amounted to 263.

Consider H-KYIENISDE-OH, for which, in the assay with human oxytocin receptor, the “EC50 of calcium release” value came out at 8.93 µM and the “Emax of calcium release” value is 222.

Take H-GFDRDCPVV-OH [OT-like peptide #16, Elongation factor Tu 164-172, H-GFDRDCPVV-OH]: the “Emax of calcium release” value in the assay with human oxytocin receptor came out at 2.13.

For the molecule H-AYSPLGTGK-OH [OT-like peptide #12, 2,5-didehydrogluconate reductase 202-210, H-AYSPLGTGK-OH], the “Emax of calcium release” value in the assay with human oxytocin receptor was 5.25.

In the case of H-CYFEDAGA-OH [OT-like peptide #13, Triosephosphate isomerase 61-68, H-CYFEDAGA-OH], the “Emax of calcium release” value with human oxytocin receptor stood at 17.9.

B1: 2,5-didehydrogluconate reductase (protein, listed as Lactobacillus camelliae)
chain: MAEISKMSDTYTLSNGVKIPIVGFGTWQTPDGDVAKHSVEVAIKDGYRHIDTAAMYRNEDSVGEGIKAGLAAAGLKRDDLFVTTKLNNNAHSFDLVQKAIDESLTKLGLDHVDLYLIHWPNPVSFRDSYPDSLKETWRGMEQVYKDGKARAIGISNFRQAHLDVIKADATVEPMVNQIFLNPSDLQPAVTKMNAENNILSEAYSPLGTGKLLGNEELAKVAAKYGKGVAQVLLRWSLQHGFLPLAKSVHDARIKENTELFDFTLSDEDMKTLDGMRGVAGLATDPDTTNF
modifications: 2,5-didehydrogluconate reductase
notes: protein expressed by Lactobacillus camelliae
Regarding B1, the “immune cross-reaction” value in the assay on anti-oxytocin antibodies (setting [1]) is reported as “immune cross-react with anti-oxytocin antibodies”.

As for H-QYIQEGR-OH [OT-like peptide #6, Glucose-6-phosphate isomerase 313-319, H-QYIQEGR-OH], in the assay with human oxytocin receptor, the “EC50 of calcium release” value came to 3.79 µM and the “Emax of calcium release” value came to 99.4.

Regarding H-DYVKNMITG-OH [OT-like peptide #1, Elongation factor Tu 87-95, H-DYVKNMITG-OH], in the assay with human oxytocin receptor, the “EC50 of calcium release” value was found to be 2.77 µM and the “Emax of calcium release” value came out at 274.

As to H-KTVVWNGPMG-OH [OT-like peptide #3, Phosphoglycerate kinase 317-326, H-KTVVWNGPMG-OH], the “Emax of calcium release” value with human oxytocin receptor amounted to 302.

As for H-DYIKNMITG-OH [OT-like peptide #8, Elongation factor Tu 88-96, H-DYIKNMITG-OH], the “Emax of calcium release” value in the assay with human oxytocin receptor was found to be 140.

On to H-SYFYNKEDG-OH [OT-like peptide #10, Enolase 246-254, H-SYFYNKEDG-OH], for which the “Emax of calcium release” value with human oxytocin receptor came to 41.6.

For the molecule H-MFQAARKG-OH [OT-like peptide #11, Fructose tagatose bisphosphate aldolase 1-8, H-MFQAARKG-OH], the “Emax of calcium release” value with human oxytocin receptor was 4.65.

H-ATSKNCPIA-OH [OT-like peptide #4, GMP synthase [glutamine-hydrolyzing] 154-162, H-ATSKNCPIA-OH]: in the assay with human oxytocin receptor, the “EC50 of calcium release” value amounted to 3.09 µM and the “Emax of calcium release” value was found to be 305.

Take H-DFVKNMITG-OH [OT-like peptide #17, Elongation factor Tu 89-97, H-DFVKNMITG-OH]: in the assay with human oxytocin receptor, the “EC50 of calcium release” value stood at 7.52 µM and the “Emax of calcium release” value was 135.

B2: Fructose tagatose bisphosphate aldolase (protein, listed as Lactobacillus camelliae)
chain: MFQAARKGHYAIGAFNTNNLEWTRALLKGAQELNVPILIQTSMGAAKYMGGYKLCKALIELEAESMNITVPVVIHLDHGNFEAAKEAIAAGYNSVMFDGHDLPFDENLEKTKEIVKLAHAKGISVEAEVGSIGGEEDGVIGEGELASVEEAKTLAATGIDFMAAGIGNIHGKYPSNWKGLHFDRLQEIADAVDLPLVLHGGSGIPQDQVEKAISMGIAKLNINTECQLAFAKATREYILANKDQEGKGYDPRKLLAPGTQAITDTFKEISGWMGTRPVKMVPEEIK
modifications: Fructose tagatose bisphosphate aldolase
notes: as for B1
Consider B2, for which the “immune cross-reaction” value in the assay with anti-oxytocin antibodies (setting [1]) is reported as “immune cross-react with anti-oxytocin antibodies”.

As to H-LTITNVPNS-OH, in the assay with human oxytocin receptor, the “EC50 of calcium release” value is 2.7 µM and the “Emax of calcium release” value was 272.

B3: Triosephosphate isomerase (protein, listed as Lactobacillus camelliae)
chain: MAGNWKMNKNPEETQAFLDGVKGKLPESSKVQTVIAAPAIDLTTLVAGAKGTPLQTAAENCYFEDAGAFTGETSPKALKDMGLDYVVIGHSERRGYFHETDQDINKKAKAILKNGLLPIICCGESLDQREAGQTNDWVASQVEAALAGISAADVKNSVIAYEPIWAIGTGKTASADQAQEVVAHIRSIVAKLYDAETADAVRILYGGSVKPANVKELMAKPDIDGGLVGGASMDPESFVALANYQD
modifications: Triosephosphate isomerase
notes: as for B1
With B3, the “immune cross-reaction” value in the assay on anti-oxytocin antibodies (setting [1]) is “immune cross-react with anti-oxytocin antibodies”.

As for H-KFVNDNELG-OH [OT-like peptide #2, Glucose-6-phosphate isomerase 13-21, H-KFVNDNELG-OH], in the assay with human oxytocin receptor, the “EC50 of calcium release” value stood at 3.21 µM and the “Emax of calcium release” value is 165.

In the case of H-VDIQEFMIMPVG-OH [OT-like peptide #9, Enolase 2 160-171, H-[…]-OH], the “Emax of calcium release” value with human oxytocin receptor is 119.
